Our source for the Kd values is the Immune Epitope Database (IEDB).

Holding throughout (assay): IEDB peptide-MHC binding, purified MHC/competitive/radioactivity; filed as Kd, often an IC50 or EC50 that approximates it; ≥ and ≤ were set here for values at or beyond the usual limits of such assays
In assay [1] the target is HLA-A*30:01.
Assay [2] deals with HLA-A*29:02.
Assay [3] deals with HLA-A*01:01.
In assay [4] the target is HLA-A*30:02.
The target in assay [5] is HLA-A*24:02.
Assay [6] has as its target HLA-A*26:01.
Assay [7] has as its target HLA-A*23:01.
The target of assay [8] is HLA-B*35:01. Conditions: source organism: Dengue virus 4 Philippines/H241/1956.
Assay [9] concerns the target HLA-B*07:02.
Assay [10] has as its target HLA-A*32:01.
Assay [11] has as its target HLA-A*31:01.
The target in assay [12] is HLA-A*11:01.
The target in assay [13] is HLA-A*03:01.
Assay [14] deals with HLA-A*68:01.
Assay [15] deals with HLA-A*33:01. The conditions noted are these: source organism: Vaccinia virus WR.
Assay [16] concerns the target HLA-B*53:01.
In assay [17] the target is HLA-B*51:01. The conditions noted are these: source organism: Dengue virus 2 Jamaica/1409/1983.
Assay [18] addresses HLA-A*68:02. The conditions noted are these: source organism: Dengue virus 3 Sri Lanka/1266/2000.
Setting [19] is: source organism: Vaccinia virus WR.
The mark [20] stands for this setting: source organism: SARS coronavirus Tor2.
Setting [21] is: source organism: Dengue virus 4 Philippines/H241/1956.
The mark [22] stands for this setting: source organism: Lymphocytic choriomeningitis virus (strain Armstrong).
The mark [23] stands for this setting: source organism: Mammarenavirus juninense.
Where [24] appears, read: source organism: Dengue virus 3 Martinique/1243/1999.
Setting [25] is: source organism: Dengue virus 1 Singapore/S275/1990.
[26] abbreviates: source organism: Mammarenavirus mopeiaense.
Setting [27] is: source organism: Mammarenavirus machupoense.
Setting [28] is: source organism: Mammarenavirus brazilense.
Where [29] appears, read: source organism: Dengue virus 1 Brazil/97-11/1997.
Setting [30] is: source organism: Dengue virus 3 Sri Lanka/1266/2000.
Where [31] appears, read: source organism: Mammarenavirus caliense.

For the sequence AAKGASMTL, the dissociation constant (Kd) in assay [1] (setting [19]) worked out at 0.998 nM.
Regarding APALQEAYY, the Kd is 1990 nM in [2] (setting [20]); at least 109000 nM in assay [3] (setting [20]); 365 nM in [4] (setting [20]); at least 77600 nM in assay [5] (setting [20]); at least 65600 nM in assay [6] (setting [20]); at least 77800 nM in assay [7] (setting [20]).
APSTGSASSM: the dissociation constant Kd in [8] was 377 nM; in assay [9] (setting [21]) it was 19.3 nM.
For DSEEYHLLY, the Kd was 289 nM in [2] (setting [22]); 2.78 nM in assay [3] (setting [22]); 3750 nM in [4] (setting [22]); 11300 nM in assay [1] (setting [22]); at least 77800 nM in [10] (setting [22]); 14400 nM in assay [6] (setting [22]).
As to EDAMPGVLSY, the dissociation constant Kd is 11100 nM in [2] (setting [23]); 10600 nM in assay [3] (setting [23]); 15500 nM in assay [4] (setting [23]); at least 70400 nM in assay [1] (setting [23]); at least 46400 nM in [5] (setting [23]); at least 69900 nM in [10] (setting [23]). In addition, the Kd in assay [6] (setting [23]) worked out at 1810 nM; in assay [7] (setting [23]) it was 16400 nM.
For the sequence HQHLAIMFK, the Kd in assay [1] (setting [19]) is 4.99 nM.
In the case of KADRVIDPRR, the Kd in assay [1] (setting [24]) turned out to be 5180 nM.
On to KTFDTEYPK, for which the Kd amounted to 29.8 nM in [11] (setting [21]); 126 nM in [12] (setting [21]); 26.1 nM in [13] (setting [21]); 80 nM in assay [1] (setting [21]); 2800 nM in assay [10] (setting [21]); 104 nM in assay [14] (setting [21]).
As to KTGESSRCY, the Kd in assay [2] (setting [22]) is 4380 nM; in assay [3] (setting [22]) it was 7280 nM; in [4] (setting [22]), 101 nM; in [1] (setting [22]), 3520 nM; in assay [10] (setting [22]), at least 77800 nM; in assay [6] (setting [22]) it was at least 77900 nM.
On to KYKPVYSYV, for which, in assay [1] (setting [19]), the Kd was 0.74 nM.
Turning to LARRPTPKK, the dissociation constant Kd in assay [11] (setting [19]) was 70.4 nM; in assay [12] (setting [19]), 431 nM; in assay [15] it was 19300 nM; in [13] (setting [19]), 185 nM; in assay [1] (source organism: Vaccinia virus Copenhagen) it was 10.4 nM; in assay [14] (setting [19]) it was 430 nM.
LDESFLGRY: the Kd in assay [2] (setting [20]) was 1540 nM; in [3] (setting [20]) it was 2610 nM; in [4] (setting [20]), 163 nM; in assay [5] (setting [20]) it was at least 77600 nM; in [6] (setting [20]), 12700 nM; in assay [7] (setting [20]), at least 77800 nM.
With LFLAFVVFL, the Kd in [2] (setting [20]) was 7980 nM; in [3] (setting [20]) it was 812 nM; in assay [4] (setting [20]), at least 34300 nM; in assay [5] (setting [20]), at least 29900 nM; in assay [6] (setting [20]) it was 571 nM; in [7] (setting [20]), 1880 nM.
For the sequence LGSLGCKPLT, in [1] (setting [25]), the Kd stood at 1410 nM.
In the case of LPEYGTLGL, the Kd was found to be 40.1 nM in [9] (setting [24]) and 545 nM in [16] (setting [24]).
LYLTQDLFL: the equilibrium dissociation constant (Kd) in assay [2] (setting [20]) was at least 71900 nM; in assay [3] (setting [20]) it was at least 20400 nM; in assay [4] (setting [20]), at least 81100 nM; in assay [5] (setting [20]) it was at least 70300 nM; in assay [6] (setting [20]) it was at least 34000 nM; in [7] (setting [20]), at least 81700 nM.
As for MSKSHAAYI, in [1] (setting [19]), the dissociation constant (Kd) was determined as 0.227 nM.
Take PYIASRTSIV: the dissociation constant Kd in [2] (setting [26]) was at least 32600 nM; in [3] (setting [26]), at least 44500 nM; in assay [4] (setting [26]) it was at least 37300 nM; in assay [5] (setting [26]), 2500 nM; in assay [6] (setting [26]) it was at least 69700 nM; in assay [7] (setting [26]), 1590 nM.
For the sequence QFIHFYREPV, the dissociation constant (Kd) is at least 39400 nM in assay [2] (setting [22]); at least 41300 nM in [3] (setting [22]); 5150 nM in assay [4] (setting [22]); at least 70300 nM in assay [5] (setting [22]); at least 69700 nM in [6] (setting [22]); at least 69500 nM in assay [7] (setting [22]).
On to QPATLRKYCI, for which the Kd was 660 nM in assay [9] (source organism: Dengue virus 2 Jamaica/1409/1983) and at least 26100 nM in assay [17].
QYVRSGKDHV: the equilibrium dissociation constant (Kd) was at least 71400 nM in assay [2] (setting [22]); at least 70400 nM in assay [3] (setting [22]); 1440 nM in assay [4] (setting [22]); at least 70300 nM in [5] (setting [22]); at least 69700 nM in [6] (setting [22]); at least 50200 nM in [7] (setting [22]).
With RFKTKGRYNL, the dissociation constant Kd amounted to 104 nM in assay [2] (setting [27]), 579 nM in [5] (setting [27]) and 87.5 nM in assay [7] (setting [27]).
As for SYREAACCHL, the Kd was at least 28900 nM in assay [2] (setting [20]); at least 25100 nM in [3] (setting [20]); 7040 nM in assay [4] (setting [20]); 221 nM in assay [5] (setting [20]); at least 69700 nM in [6] (setting [20]); 643 nM in assay [7] (setting [20]).
For the sequence TADDITMGY, the Kd in [2] (setting [28]) is 11300 nM; in [3] (setting [28]) it was 18.8 nM; in assay [4] (setting [28]), 9930 nM; in [1] (setting [28]), at least 78100 nM; in assay [10] (setting [28]) it was at least 77800 nM; in assay [6] (setting [28]), 4700 nM.
Take TARGARRMA: the dissociation constant Kd in assay [1] (setting [29]) is 6300 nM.
The same measure, in the same setting: the result for TFKTAHAKK reads 99.4 nM.
Regarding TPEGIIPTLF, the dissociation constant (Kd) in assay [8] turned out to be 93.5 nM; in assay [9] (setting [21]) it was 920 nM; in [16] (setting [21]), 38.1 nM.
For TPKAKRGTAQ, in assay [9] (setting [25]), the Kd is 1410 nM.
Take TPTGTVMDII: the Kd in assay [9] (setting [24]) came to 219 nM.
For the sequence TSSMRGVYY, the equilibrium dissociation constant (Kd) was 263 nM in [2] (setting [20]); 69.3 nM in [3] (setting [20]); 124 nM in [4] (setting [20]); at least 77600 nM in assay [5] (setting [20]); 8300 nM in assay [6] (setting [20]); at least 77800 nM in assay [7] (setting [20]).
For the sequence TVAAMGVPPL, the dissociation constant Kd in assay [1] (setting [30]) was found to be 3210 nM; in assay [6] (setting [30]) it was 12200 nM; in assay [18], 19.8 nM.
On to TYASALWEI, for which the equilibrium dissociation constant (Kd) was 14200 nM in [2] (setting [20]); at least 78100 nM in [3] (setting [20]); at least 81100 nM in assay [4] (setting [20]); at least 21500 nM in assay [5] (setting [20]); at least 77900 nM in assay [6] (setting [20]); 8140 nM in assay [7] (setting [20]).
For VFSAVGNICY, the Kd is 28.3 nM in [2] (setting [20]); 60.5 nM in assay [3] (setting [20]); 13.8 nM in assay [4] (setting [20]); 7130 nM in assay [5] (setting [20]); 1280 nM in assay [6] (setting [20]); 15400 nM in assay [7] (setting [20]).
In the case of VKIPTHRHI, the Kd in assay [2] (setting [22]) was 15400 nM; in assay [3] (setting [22]), at least 78100 nM; in assay [4] (setting [22]) it was at least 76900 nM; in [5] (setting [22]), at least 77500 nM; in [6] (setting [22]), at least 77900 nM; in assay [7] (setting [22]) it was at least 77700 nM.
As to VMPVHTLSI, the Kd in assay [2] (setting [20]) is 141 nM; in [3] (setting [20]) it was at least 78100 nM; in [4] (setting [20]), 4570 nM; in [5] (setting [20]), 47.2 nM; in assay [6] (setting [20]) it was at least 20700 nM; in assay [7] (setting [20]), 109 nM.
For VSIINNAVY, the dissociation constant Kd in assay [2] (setting [20]) was 1070 nM; in assay [3] (setting [20]), 883 nM; in [4] (setting [20]), 9.17 nM; in assay [5] (setting [20]), at least 58700 nM; in assay [6] (setting [20]), 15300 nM; in assay [7] (setting [20]) it was at least 44300 nM.
Regarding VYKVYYGNAL, the dissociation constant (Kd) is 7770 nM in [2] (setting [20]); at least 37200 nM in assay [3] (setting [20]); 5980 nM in [4] (setting [20]); 203 nM in [5] (setting [20]); 11700 nM in assay [6] (setting [20]); 746 nM in assay [7] (setting [20]).
For YEDQDALFAY, the dissociation constant Kd in assay [2] (setting [20]) was 530 nM; in assay [3] (setting [20]), at least 92600 nM; in assay [4] (setting [20]) it was 2030 nM; in assay [5] (setting [20]), at least 70300 nM; in assay [6] (setting [20]), at least 64800 nM; in [7] (setting [20]), at least 70000 nM.
As for YLALYNKYKY, the dissociation constant (Kd) was 43.2 nM in assay [2] (setting [20]); 244 nM in [3] (setting [20]); 34.5 nM in assay [4] (setting [20]); 18600 nM in assay [5] (setting [20]); 19200 nM in [6] (setting [20]); 11600 nM in [7] (setting [20]).
YQPDTGNYI: the Kd is at least 78900 nM in [2] (setting [31]), 5260 nM in assay [5] (setting [31]) and 5790 nM in [7] (setting [31]).
